# Results taken from publication PMC9879991, “Biomolecular condensates formed by designer minimalistic peptides” (Nature Communications, 2023).
# No end group written: not given here.
# Tested on: not given
# Assay: not given
# Conditions: solution NMR, Trp1-Hα and Trp1-Hβ shifts at pH 6.0, 7.0, 7.5, 8.0, 9.0, Henderson-Hasselbach fit; error by Monte Carlo
row,Molecule,pKa of the N-terminal amine group
1,WGRGRGRGWY [WGR-4],7.37 ± 0.01
2,WGRGRGRGWPGVGF [WGR-3],7.49 ± 0.01
3,WGRGRGWPGVGY [WGR-5],7.51 ± 0.01

# Target: Nterm1 (position 1, -----WGRGRG)
# Assay: NMR
# Conditions: 300 K (general NMR methods statement; not restated for the titration), NaCl 0-0.2 M used in NMR samples, concentration for the pKa titration not given, 20 mM Tris (NMR methods), Free peptide in solution, disordered
row,Molecule,pKa
1,WGRGRGRGWPGVGF [WGR-3 designer LLPS peptide (Tyr14 to Phe variant of WGR-1) (synthetic construct; Y14F)],7.49 ± 0.01
2,WGRGRGWPGVGY,7.51 ± 0.01
3,WGRGRGRGWY [WGR-4 designer LLPS peptide (WGR-1 without the ELP motif) (synthetic construct; del10-13)],7.37 ± 0.01
4,WGRGRGRGWPGVGY [WGR-1 designer LLPS peptide (synthetic construct)],7.50 ± 0.01
